Source: the supplement of paper PMC7877785
± gives the uncertainty stated by the source.

Assay: self-splicing fitness, log relative to wild type (ln ratio); higher = more splicing; Tetrahymena group I intron in knt gene, E. coli kanamycin selection, DiMSum; sequences stand for … in CUCUCU…GGAGGGAAAAGUUAUCAGGCAUGCACCUGGUAGCUAGUCUUUAAACCAAUAGAUUGCAUCGGUUUAAAAGGCAAGACCGUCAAAUUGCGGGAAAGGGGUCAACAGCCGUUCAGUACCAAGUCUCAGGGGAAACUUUGAGAUGGCCUUGCAAAGGGUAUGGUAAUAAGCUGACGGACAUGGUCCUAACCACGCAGCCAAGUCCUAAGUCAACAGAUCUUCUGUUGAUAUGGAUGCAGUUCACAGACUAAAUGUCGGUCGGGGAAGAUGUAUUCUUCUCAUAAGAUAUAGUCGGACCUCUCCUUAAUGGGAGCUAGCGGAUGAAGUGAUGCAACACUGGAGCCGCUGGGAACUAAUUUGUAUGCGAAAGUAUAUUGAUUAGUUUUGGAGUACUCGUGGUCG
Procedure, shortened: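 Pooled colonies went to amplicon sequencing on an Illumina HiSeq 2500 after six replicate transformations. The plates were LB agar with 100 μg/mL carbenicillin, 50 μM IPTG and 0.2% rhamnose, with or without 25 μg/mL kanamycin, incubated overnight at 37°C or 30°C. The E. coli BL21(DE3) library had all eight P1ex-region intron nucleotides randomised, the intron placed in the knt kanamycin-resistance gene on pET-22b(+). DiMSum fitness is the error-weighted combination of replicate fold changes, kanamycin against none, normalised to wild type.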

Sequence | self-splicing fitness (ln) (30 °C) | self-splicing fitness (ln) (37 °C)
UCUUAGCAAUAUUACGAGUG | -0.964 ± 0.065 | -0.162 ± 0.097
GAAUAGCAAUAUUACGUAUG | -1.56 ± 0.12 | -1.04 ± 0.18
CCAUAGCAAUAUUACGAGGG | -3.56 ± 0.15 | -2.25 ± 0.19
CCUUAGCAAUAUUACGCGUU | -3.55 ± 0.21 | -2.12 ± 0.16
GCGUAGCAAUAUUACGUAGG | -3.73 ± 0.22 | -2.02 ± 0.19
CGCAAGCAAUAUUACGGCAG | -0.448 ± 0.072 | -0.305 ± 0.1
ACUAAGCAAUAUUACGAUAC | -2.39 ± 0.21 | -1.29 ± 0.22
UGUCAGCAAUAUUACGUAUA | -0.245 ± 0.067 | 0.374 ± 0.087
AGCGAGCAAUAUUACGACAC | -1.34 ± 0.34 | 
GGUCAGCAAUAUUACGUUCG | -0.853 ± 0.093 | 0.373 ± 0.13
GUGCAGCAAUAUUACGUGGG | -2.86 ± 0.11 | -2.01 ± 0.11
GAAUAGCAAUAUUACGCUAC | -1.75 ± 0.48 | 
GUCCAGCAAUAUUACGUCCA | -1.12 ± 0.077 | -0.579 ± 0.079
CCCGAGCAAUAUUACGGCGG | -3.49 ± 0.23 | -1.66 ± 0.2
CAAAAGCAAUAUUACGCACU | -1.57 ± 0.091 | -0.654 ± 0.089
UGGGAGCAAUAUUACGUGCG | -1.56 ± 0.11 | -0.551 ± 0.14
CCUCAGCAAUAUUACGAGGG | -4.16 ± 0.26 | -2.73 ± 0.28
UCUUAGCAAUAUUACGCGCA | -0.966 ± 0.29 | -1.53 ± 0.23
CGGGAGCAAUAUUACGUAAU |  | -1.95 ± 0.28
AUGAAGCAAUAUUACGCCAU | -1.17 ± 0.082 | -0.85 ± 0.12
GCUUAGCAAUAUUACGGCGA | -1.75 ± 0.14 | -1.33 ± 0.16
GCUAAGCAAUAUUACGACGA | -0.978 ± 0.088 | -0.529 ± 0.1
AGUUAGCAAUAUUACGAGAU | -2.15 ± 0.18 | -1.17 ± 0.16
UCAUAGCAAUAUUACGUCAA | -2.44 ± 0.32 | 
UUACAGCAAUAUUACGGGAU | -3.85 ± 0.21 | -2.69 ± 0.13
CGACAGCAAUAUUACGAAAU | -3.15 ± 0.12 | -3.06 ± 0.19
CAAAAGCAAUAUUACGCGGU | -3.58 ± 0.2 | -2.46 ± 0.24

Sequence | self-splicing fitness (ln) (30 °C) | self-splicing fitness (ln) (37 °C)
UCAUAGCAAUAUUACGAUGG | -3.32 ± 0.19 | -1.3 ± 0.17
CUGAAGCAAUAUUACGAGGU | -3.28 ± 0.11 | -2.41 ± 0.17
AAGCAGCAAUAUUACGUGGG | -3.54 ± 0.13 | -1.36 ± 0.084
UCGGAGCAAUAUUACGGCGA | -1.1 ± 0.18 | -0.689 ± 0.23
UGCCAGCAAUAUUACGGACA | -0.325 ± 0.074 | -0.394 ± 0.09
ACUAAGCAAUAUUACGAGAG | -3.17 ± 0.13 | -2.52 ± 0.15
ACGGAGCAAUAUUACGGUAU | -4.48 ± 0.25 | -2.58 ± 0.2
GGAAAGCAAUAUUACGGCUA | -0.34 ± 0.2 | -0.931 ± 0.18
AAAUAGCAAUAUUACGAUUG | -2.16 ± 0.15 | -1.31 ± 0.18
AAGAAGCAAUAUUACGCAAA | -2.71 ± 0.24 | -0.539 ± 0.16
AGUGAGCAAUAUUACGUGUA | -3.6 ± 0.28 | -2.84 ± 0.23
CAGCAGCAAUAUUACGCCUG | -3.7 ± 0.22 | -2.35 ± 0.21
CUGAAGCAAUAUUACGCAAG | -0.812 ± 0.12 | 0.142 ± 0.18
UGAUAGCAAUAUUACGCUUU | -3.56 ± 0.47 | -1.39 ± 0.15
AGGUAGCAAUAUUACGGGUC | -3.64 ± 0.03 | -2.96 ± 0.046
CACAAGCAAUAUUACGUUGC | -3.28 ± 0.1 | -2.66 ± 0.13
GCUGAGCAAUAUUACGUCUC |  | -1.16 ± 0.35
CCUGAGCAAUAUUACGUACG | -2.08 ± 0.2 | -1.24 ± 0.22
CAUAAGCAAUAUUACGUCGG | -0.598 ± 0.061 | -0.568 ± 0.087
ACUCAGCAAUAUUACGUAUU | -2.01 ± 0.081 | -0.892 ± 0.11
GGCGAGCAAUAUUACGUUAC | -3.24 ± 0.33 | -2.03 ± 0.32
AAACAGCAAUAUUACGGGUA | -2.58 ± 0.093 | -1.31 ± 0.072
AUGCAGCAAUAUUACGCUGA | -2.82 ± 0.19 | -1.35 ± 0.13
GAACAGCAAUAUUACGGAUA | -2.51 ± 0.13 | -1.28 ± 0.12
UCUAAGCAAUAUUACGGCGC | -1.94 ± 0.34 | -1.43 ± 0.26
GGCUAGCAAUAUUACGAAAU | -1.67 ± 0.22 | 0.0518 ± 0.2
UUUAAGCAAUAUUACGUUUA | -2.69 ± 0.17 | -2.1 ± 0.11

Sequence | self-splicing fitness (ln) (30 °C) | self-splicing fitness (ln) (37 °C)
UACCAGCAAUAUUACGAGGU | -3.36 ± 0.22 | -3.39 ± 0.23
GUAGAGCAAUAUUACGCAGU | -1.39 ± 0.11 | -1.45 ± 0.17
GAAGAGCAAUAUUACGCUAA |  | -2.22 ± 0.3
CUACAGCAAUAUUACGAGUC | -3.63 ± 0.24 | -3.18 ± 0.38
AGACAGCAAUAUUACGCACA | -0.582 ± 0.079 | -0.0964 ± 0.099
GGCGAGCAAUAUUACGGAAG | -4.21 ± 0.3 | -1.04 ± 0.2
CACGAGCAAUAUUACGCUUA | -2.83 ± 0.32 | -0.611 ± 0.12
CUAAAGCAAUAUUACGGAGG | -1.82 ± 0.1 | 0.0636 ± 0.12
CUACAGCAAUAUUACGAUGG | -1.44 ± 0.053 | -0.971 ± 0.077
GCGAAGCAAUAUUACGACUA | 0.115 ± 0.22 | -1.94 ± 0.2
AGAUAGCAAUAUUACGCGAG | -1.22 ± 0.1 | -1.03 ± 0.1
CACCAGCAAUAUUACGAGUA | -1.04 ± 0.06 | -0.515 ± 0.066
UAGUAGCAAUAUUACGCAGU | -2.65 ± 0.21 | -1.02 ± 0.14
CUUGAGCAAUAUUACGUAUU |  | -3.02 ± 0.37
AGUAAGCAAUAUUACGAACG | -0.785 ± 0.14 | -0.209 ± 0.18
CUCUAGCAAUAUUACGGUAA | -2.38 ± 0.24 | -2.14 ± 0.21
UUCGAGCAAUAUUACGGGCU |  | -3.81 ± 0.42
UAAGAGCAAUAUUACGAACU | -2.49 ± 0.47 | 
GUGCAGCAAUAUUACGCGAA | -1.62 ± 0.1 | -0.106 ± 0.085
ACAGAGCAAUAUUACGCUCG | -1.05 ± 0.13 | -1.12 ± 0.2
GUAAAGCAAUAUUACGUUAC | -1.15 ± 0.14 | -1.91 ± 0.21
ACGAAGCAAUAUUACGCUUG | -1.4 ± 0.086 | -0.259 ± 0.098
CAACAGCAAUAUUACGUACA | -2.28 ± 0.11 | -1.12 ± 0.093
GGGGAGCAAUAUUACGGCAC | -1.39 ± 0.18 | -1.06 ± 0.3
GCCUAGCAAUAUUACGCCGA | -0.66 ± 0.49 | 
